± gives the standard deviation of the averaged measurements.
Tested on: ATP
Assay: switch fluorescence ratio, 500 uM ATP over buffer (Cy3 cluster intensity, sum of 5 cycles each) (fold (ratio)); higher = stronger signal-on switching upon ATP binding; sequences stand for … in TCGTCGGCAGCGTCAGATGTGTATAAGAGACAGTTTTTTTTTTTTTTTTTTTTTTTTT…TC
Details: aptamer strand: ATP DNA aptamer (quencher-CACCTGGGGGAGTATTGCGGAGGAAGG + anchor), 100 nM annealed; ATP concentration: 500 uM
Procedure, shortened: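 After annealing to 100 nM quencher-labelled ATP aptamer, Cy3-labelled switching-strand clusters on a modified Illumina MiSeq flow-cell were imaged in selection buffer. A second image followed after 15 min with 500 uM ATP at 22 °C, and five such buffer/ATP cycles were done, each separated by NaOH stripping and re-annealing. The fluorescence ratio, averaged per switch-domain sequence, is summed target-cycle over summed buffer-cycle Cy3 intensity per cluster, with clusters outside 100-1000 RFU excluded.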
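Further: ATP exposure 15 min at 22 °C before imaging.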

| Sequence | switch fluorescence ratio |
| --- | --- |
| ACTTGAGGAT | 1 ± 0.017 |
| ACTTGATAGG | 1.03 ± 0.041 |
| ACTTGATGGG | 0.992 ± 0.045 |
| ACTTGCTTGT | 1.02 ± 0.013 |
| ACTTGGCGCT | 1.034 ± 0.0095 |
| ACTTGGGGAG | 1 ± 0.014 |
| ACTTGTAGAT | 1.009 ± 0.0059 |
| ACTTGTCATC | 0.992 ± 0.043 |
| ACTTTACAAA | 1.28 ± 0.036 |
| ACTTTACTTA | 1.33 ± 0.02 |
| ACTTTAGATT | 1.04 ± 0.0053 |
| ACTTTATGTG | 0.996 ± 0.035 |
| ACTTTCCGTT | 1.1 ± 0.05 |
| ACTTTCGATT | 1.09 ± 0.13 |
| ACTTTGGAGA | 1.029 ± 0.0054 |
| ACTTTGGTGC | 1.03 ± 0.026 |
| ACTTTTACAT | 1.13 ± 0.025 |
| ACTTTTCTCG | 1.01 ± 0.011 |
| ACTTTTCTCT | 1.02 ± 0.021 |
| ACTTTTGCTG | 0.983 ± 0.019 |
| ACTTTTGGCG | 1 ± 0.071 |
| ACTTTTTAGG | 1.01 ± 0.044 |
| ACTTTTTTAA | 1.004 ± 0.0029 |

| Sequence | switch fluorescence ratio |
| --- | --- |
| ACTTTTTTTT | 1.01 ± 0.034 |
| AGAAAAAGTT | 1.017 ± 0.0048 |
| AGAAAAGGGG | 1.01 ± 0.054 |
| AGAAAATTAC | 2.42 ± 2 |
| AGAAAATTCG | 0.981 ± 0.024 |
| AGAAAATTTC | 1.04 ± 0.051 |
| AGAAACGGAA | 1.27 ± 0.35 |
| AGAAACGGAG | 1.02 ± 0.016 |
| AGAAAGGAGT | 0.9982 ± 0.0032 |
| AGAAATAATC | 1.01 ± 0.015 |
| AGAAATTTGA | 0.98 ± 0.013 |
| AGAACGCGTA | 1.03 ± 0.013 |
| AGAACGGTAT | 1.048 ± 0.0034 |
| AGAACGTCTG | 0.9969 ± 0.0022 |
| AGAACGTTCT | 0.9851 ± 0.0059 |
| AGAACTGTGA | 0.9889 ± 0.0037 |
| AGAACTTAAG | 1.01 ± 0.037 |
| AGAAGCCCCT | 0.992 ± 0.031 |
| AGAAGCTATT | 0.9724 ± 0.0017 |
| AGAAGGCGGC | 1 ± 0.023 |
| AGAAGGGAGG | 0.987 ± 0.011 |
| AGAAGGGCGG | 0.99 ± 0.037 |
| AGAAGTAATG | 0.997 ± 0.011 |

| Sequence | switch fluorescence ratio |
| --- | --- |
| AGAATAAAGG | 0.993 ± 0.05 |
| AGAATAGGCG | 1.02 ± 0.022 |
| AGAATATCGT | 0.984 ± 0.043 |
| AGAATATTCT | 0.98 ± 0.014 |
| AGAATCGTAT | 1.01 ± 0.028 |
| AGAATGAGTG | 1.026 ± 0.0048 |
| AGAATGATTA | 0.986 ± 0.01 |
| AGAATGCTTT | 0.9971 ± 0.0034 |
| AGAATGGTAT | 1.07 ± 0.08 |
| AGAATGGTGT | 1.02 ± 0.038 |
| AGAATGGTTT | 0.985 ± 0.03 |
| AGAATGTTTC | 0.973 ± 0.021 |
| AGAATTCAAC | 1.003 ± 0.004 |
| AGAATTGAGG | 0.979 ± 0.016 |
| AGACAAGGGC | 1.06 ± 0.084 |
| AGACACGGGG | 1.06 ± 0.02 |
| AGACAGGGAC | 1.04 ± 0.016 |
| AGACAGGGAG | 1.01 ± 0.031 |
| AGACCATAGA | 1.02 ± 0.024 |
| AGACCTTCTT | 1.51 ± 0.025 |
| AGACCTTGGT | 0.963 ± 0.03 |
| AGACGCGCCA | 1.05 ± 0.087 |
| AGACGGAAAG | 0.982 ± 0.015 |

| Sequence | switch fluorescence ratio |
| --- | --- |
| AGACGGAACT | 1.08 ± 0.025 |
| AGACGGTATT | 1.056 ± 0.0039 |
| AGACGTCCCA | 1.02 ± 0.022 |
| AGACTCGCCC | 1.12 ± 0.059 |
| AGACTGCATT | 1.06 ± 0.03 |
| AGACTGTTGA | 1.04 ± 0.019 |
| AGAGAAAGGG | 1.02 ± 0.035 |
| AGAGAACCCT | 1.08 ± 0.048 |
| AGAGAAGGGA | 1.002 ± 0.0071 |
| AGAGAAGGGT | 0.996 ± 0.017 |
| AGAGAATATT | 1.03 ± 0.039 |
| AGAGAATGCG | 1.02 ± 0.049 |
| AGAGACACGG | 1.03 ± 0.079 |
| AGAGAGAGTT | 0.974 ± 0.032 |
| AGAGAGGAGG | 0.997 ± 0.066 |
| AGAGAGGCTA | 1 ± 0.015 |
| AGAGAGGTCA | 0.997 ± 0.042 |
| AGAGAGTAGA | 1.02 ± 0.021 |
| AGAGAGTTTA | 1.04 ± 0.021 |
| AGAGATACTT | 1.01 ± 0.035 |
| AGAGATTGCC | 1.0678 ± 0.0008 |
| AGAGATTTAT | 0.988 ± 0.019 |
| AGAGCATACT | 2.12 ± 0.22 |

| Sequence | switch fluorescence ratio |
| --- | --- |
| AGAGCATAGG | 1.03 ± 0.048 |
| AGAGCCCTTA | 1.01 ± 0.014 |
| AGAGCCGCTG | 1.02 ± 0.068 |
| AGAGCCGGGG | 0.9777 ± 0.003 |
| AGAGCCGGTG | 1 ± 0.041 |
| AGAGCGAGGA | 0.986 ± 0.027 |
| AGAGCGGTTG | 0.969 ± 0.037 |
| AGAGCGTTAG | 1.02 ± 0.051 |
| AGAGCTATAA | 1.254 ± 0.0015 |
| AGAGCTGCCT | 1.06 ± 0.042 |
| AGAGGAGTTA | 0.985 ± 0.011 |
| AGAGGATGTA | 1 ± 0.056 |
| AGAGGATTTG | 1.02 ± 0.022 |
| AGAGGCAGCT | 1.03 ± 0.046 |
| AGAGGCCATC | 0.9831 ± 0.0098 |
| AGAGGCTAGG | 1.01 ± 0.032 |
| AGAGGCTGAA | 1 ± 0.012 |
| AGAGGCTGAT | 0.983 ± 0.014 |
| AGAGGCTGGT | 0.992 ± 0.017 |
| AGAGGCTGTT | 1.03 ± 0.041 |
| AGAGGGAGGA | 1.017 ± 0.0086 |
| AGAGGGATCT | 1.022 ± 0.0072 |
| AGAGGGGAGG | 0.988 ± 0.0054 |

| Sequence | switch fluorescence ratio |
| --- | --- |
| AGAGGGGGG | 0.99 ± 0.017 |
| AGAGGGGGGT | 0.99 ± 0.022 |
| AGAGGGGGTA | 0.997 ± 0.022 |
| AGAGGGGTTC | 1.01 ± 0.029 |
| AGAGGTAAT | 1.09 ± 0.12 |
| AGAGGTGTCT | 1 ± 0.049 |
| AGAGGTTCC | 1 ± 0.058 |
| AGAGTAAAGC | 0.996 ± 0.02 |
| AGAGTAGAGG | 1.01 ± 0.028 |
| AGAGTATTTA | 0.991 ± 0.011 |
| AGAGTCAAGT | 0.969 ± 0.017 |
| AGAGTCCGCT | 1.18 ± 0.084 |
| AGAGTCGAGG | 0.968 ± 0.047 |
| AGAGTGCGTA | 0.989 ± 0.023 |
| AGAGTGGAGG | 1 ± 0.041 |
| AGAGTGGGGC | 0.9817 ± 0.0089 |
| AGAGTGGTA | 0.9491 ± 0.0052 |
| AGAGTTATGT | 1.019 ± 0.0068 |
| AGAGTTGTTT | 0.997 ± 0.015 |
| AGAGTTTTGG | 0.979 ± 0.025 |
| AGATAAACG | 0.984 ± 0.056 |
| AGATAAAGGG | 1.03 ± 0.017 |
| AGATAACTTT | 1.02 ± 0.013 |

| Sequence | switch fluorescence ratio |
| --- | --- |
| AGATACGGTG | 0.983 ± 0.044 |
| AGATAGAGTG | 0.996 ± 0.02 |
| AGATAGGGGA | 1.01 ± 0.025 |
| AGATAGGGGT | 1.021 ± 0.008 |
| AGATAGGTGT | 1.079 ± 0.003 |
| AGATATGGCT | 0.979 ± 0.038 |
| AGATATTACG | 1.03 ± 0.037 |
| AGATATTATT | 0.9771 ± 0.0015 |
| AGATCCCGCG | 1.03 ± 0.032 |
| AGATCTGGAG | 0.9982 ± 0.0069 |
| AGATGAGATA | 1.005 ± 0.0037 |
| AGATGAGGCG | 1 ± 0.068 |
| AGATGCAGTA | 1.01 ± 0.028 |
| AGATGGGAAT | 1.04 ± 0.0028 |
| AGATGGGTGG | 1.01 ± 0.025 |
| AGATGGGTGT | 1.04 ± 0.041 |
| AGATGGGTTT | 1.01 ± 0.044 |
| AGATGTGGGA | 1 ± 0.013 |
| AGATGTGTGG | 0.989 ± 0.053 |
